These results are taken from patent US6613531B2, “Sigma binding region of RNA polymerase and uses thereof” (priority 2000, dated 2003).

The target of experiment [1] is T1, σ^70 (Escherichia coli, UniProt P00579). The note with it: for ability to bind σ^70 compared to wt β′1-319 fragment: normalized to amount of fragment. Here is the method: Cells containing truncated β′ expression plasmids pTA610-620 were grown to an A600 of 0.6-0.8 and induced with 1 mM IPTG. The cells were grown for an additional 30 minutes. A 200 μl sample was removed and sonicated 3×30 seconds. Twenty μl of glycerol and 20 μl of SDS-sample buffer were added and heated for 2 minutes at 95° C. then stored at −20° C. until use. The lysates were separated by SDS-PAGE. The proteins were electrophoretically transferred onto 0.05 μm nitrocellulose.
The blot was dried and the signal was visualized with a PhosphorImager and quantitated with IMAGEQUANT software (Molecular Dynamics).
This method was initially employed to detect the functionality of the β′ mutants. The mutations were cloned into a gene fragment coding for amino acid residues 1-319 of the β′ subunit. […] Samples were analyzed for binding σ^70 by far Western analysis The amount of σ^70 probe bound by each β′1-319 mutant fragment was compared to the amount bound by wt β′1-319 fragment. Each signal was normalized to the amount of β′1-319 contained in the supernatant as determined by Western blotting.
Target sequence in this assay (P00579 whole entry, the tested form may be a part): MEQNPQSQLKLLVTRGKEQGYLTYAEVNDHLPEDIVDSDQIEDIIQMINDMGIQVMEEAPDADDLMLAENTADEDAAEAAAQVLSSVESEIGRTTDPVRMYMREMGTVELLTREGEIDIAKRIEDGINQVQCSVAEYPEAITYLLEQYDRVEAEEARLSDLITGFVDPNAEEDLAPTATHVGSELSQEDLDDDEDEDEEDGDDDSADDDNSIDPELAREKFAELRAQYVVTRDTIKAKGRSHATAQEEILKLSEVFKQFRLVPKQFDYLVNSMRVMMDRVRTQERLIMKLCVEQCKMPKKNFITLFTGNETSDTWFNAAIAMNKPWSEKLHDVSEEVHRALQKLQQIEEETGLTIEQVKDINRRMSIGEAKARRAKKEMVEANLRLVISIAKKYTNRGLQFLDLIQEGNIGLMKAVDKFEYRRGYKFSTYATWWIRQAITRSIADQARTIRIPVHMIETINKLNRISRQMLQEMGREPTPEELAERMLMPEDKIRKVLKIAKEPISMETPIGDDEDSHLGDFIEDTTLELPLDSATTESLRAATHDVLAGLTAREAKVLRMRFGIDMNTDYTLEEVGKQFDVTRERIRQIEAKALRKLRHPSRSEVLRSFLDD

Experiment [2] deals with strain RL602. The experiment in a line: Growth with plasmid-derived wild type or mutant β′ as sole source of β′ subunit. It is filed as cell-based. The note with it: 42° C., mutant β′ as sole source of β′. How it is done: Plasmids pTA577, 600-609 (0.1 μg) were transformed into strain RL602 (Weilbaecher et al., 1994; Ridley et al., 1982). After heat shock and incubation on ice, 300 μl of LB was added to the 50 μl cell mixture. Ten μl of the transformation reaction was spotted onto LB plates plus ampicillin (100 μg/ml) and incubated at 30° C. Another 10 μl was spotted onto plates and incubated at 42° C. The plates were incubated between 24-48 hours and assessed for growth.
To assess the importance of the σ^70 binding site in vivo, the ability of mutant β′ subunits to function as the cell's sole source of β′ was assessed. Plasmids containing either mutant or wild type, full length β′ were transformed into strain RL602 (Weilbaecher et al., 1994; Ridley et al., 1982). The chromosomal rpoC gene of RL602 has an amber mutation that prevents functional β′ from being produced in the absence of a suppressor tRNA. RL602 also has a chromosomal, temperature-sensitive, amber suppressor. At the permissive temperature (30° C.) the amber suppressor is active and allows chromosomal β′ to be produced and the cell can grow. The amber suppressor is not active at the non-permissive temperature (42° C.). Therefore, at 42° C., chromosomal β′ is not made and the cell cannot grow without another source of β′. If the plasmid-derived β′ can complement the loss of β′, the cells will grow and form colonies on plates at the non-permissive temperature. If the mutant β′ cannot complement, there will be no growth on the plates at this temperature.

Experiment [3] concerns the target T1, σ^70. As to conditions: for Eσ^70 formation / binding σ^70: log and stationary phase samples. Here is the method:
(§1) One L flasks containing 200 ml of LB with ampicillin (100 μg/ml) and IPTG (0.15 mM) were inoculated with 200 μl from an overnight culture of cells containing plasmids pTA561, 577, 600-609. The cultures were grown at 37° C. with shaking until the A600=0.4 for log phase assays and 2 hours longer (A600 about 2.0) for the early stationary phase assays. The cells were harvested by centrifugation at 6,000 rpm for 10 minutes and stored at −20° C. until use. The cell pellets were resuspended in 5 ml TE (10 mM Tris-HCl, pH 7.9 and 0.1 mM EDTA) plus 0.15 M NaCl and lysozyme (0.1 mg/ml) then incubated on ice for 15 minutes. The cells were sonicated 2×30 seconds and centrifuged for 25 minutes at 27,000×g to pellet the insoluble material. The supernatant was loaded onto a 1.5 ml immunoaffinity column containing the polyol-responsive, anti-β′ monoclonal antibody (MAb), NT73 (Thompson et al., 1992). The column was washed with 15 ml TE plus 0.15 M NaCl followed by a second wash with 10 ml TE plus 0.5 M NaCl. The protein was eluted from the column with 4 ml TE plus 0.7 M NaCl and 30% propylene glycol. The eluted sample (4 ml) was diluted with 6 ml buffer B (20 mM Tris-HCl, pH 7.9, 500 mM NaCl, 5 mM imidazole, 0.1% (v/v) Tween 20, and 10% (v/v) glycerol) and loaded (2×) onto 500 μl of Ni^2+-NTA resin. The resin was washed (2×) with 5 ml of buffer B and eluted with 0.5 ml buffer B plus 0.25 M imidazole. Samples from the elution fractions were assayed by Western blot as described above using Mabs to each subunit or σ factor. The secondary antibodies were horseradish peroxidase-labeled goat antimouse IgG antibodies and the signal was generated using the ECL+ substrate system (Amersham) and detected using the STORM FluoroImager and quantitated with IMAGEQUANT software (Molecular Dynamics).
(§2) To evaluate the potential assembly defects caused by the various mutations, His6-tagged, mutant β′ subunits were expressed in cells that were also expressing wild type, chromosomal β′ proteins. A Ni^2+-NTA column was used to purify the mutant β′ subunits together with associated cell proteins. An immunoaffinity column was used to clean-up the samples in order to reduce any non-specific binding to the Ni^2+-NTA column.
Target sequence in this assay (P00579 whole entry, the tested form may be a part): as above
Target sequence in this assay (P0A8T7 whole entry, further chain, the tested form may be a part): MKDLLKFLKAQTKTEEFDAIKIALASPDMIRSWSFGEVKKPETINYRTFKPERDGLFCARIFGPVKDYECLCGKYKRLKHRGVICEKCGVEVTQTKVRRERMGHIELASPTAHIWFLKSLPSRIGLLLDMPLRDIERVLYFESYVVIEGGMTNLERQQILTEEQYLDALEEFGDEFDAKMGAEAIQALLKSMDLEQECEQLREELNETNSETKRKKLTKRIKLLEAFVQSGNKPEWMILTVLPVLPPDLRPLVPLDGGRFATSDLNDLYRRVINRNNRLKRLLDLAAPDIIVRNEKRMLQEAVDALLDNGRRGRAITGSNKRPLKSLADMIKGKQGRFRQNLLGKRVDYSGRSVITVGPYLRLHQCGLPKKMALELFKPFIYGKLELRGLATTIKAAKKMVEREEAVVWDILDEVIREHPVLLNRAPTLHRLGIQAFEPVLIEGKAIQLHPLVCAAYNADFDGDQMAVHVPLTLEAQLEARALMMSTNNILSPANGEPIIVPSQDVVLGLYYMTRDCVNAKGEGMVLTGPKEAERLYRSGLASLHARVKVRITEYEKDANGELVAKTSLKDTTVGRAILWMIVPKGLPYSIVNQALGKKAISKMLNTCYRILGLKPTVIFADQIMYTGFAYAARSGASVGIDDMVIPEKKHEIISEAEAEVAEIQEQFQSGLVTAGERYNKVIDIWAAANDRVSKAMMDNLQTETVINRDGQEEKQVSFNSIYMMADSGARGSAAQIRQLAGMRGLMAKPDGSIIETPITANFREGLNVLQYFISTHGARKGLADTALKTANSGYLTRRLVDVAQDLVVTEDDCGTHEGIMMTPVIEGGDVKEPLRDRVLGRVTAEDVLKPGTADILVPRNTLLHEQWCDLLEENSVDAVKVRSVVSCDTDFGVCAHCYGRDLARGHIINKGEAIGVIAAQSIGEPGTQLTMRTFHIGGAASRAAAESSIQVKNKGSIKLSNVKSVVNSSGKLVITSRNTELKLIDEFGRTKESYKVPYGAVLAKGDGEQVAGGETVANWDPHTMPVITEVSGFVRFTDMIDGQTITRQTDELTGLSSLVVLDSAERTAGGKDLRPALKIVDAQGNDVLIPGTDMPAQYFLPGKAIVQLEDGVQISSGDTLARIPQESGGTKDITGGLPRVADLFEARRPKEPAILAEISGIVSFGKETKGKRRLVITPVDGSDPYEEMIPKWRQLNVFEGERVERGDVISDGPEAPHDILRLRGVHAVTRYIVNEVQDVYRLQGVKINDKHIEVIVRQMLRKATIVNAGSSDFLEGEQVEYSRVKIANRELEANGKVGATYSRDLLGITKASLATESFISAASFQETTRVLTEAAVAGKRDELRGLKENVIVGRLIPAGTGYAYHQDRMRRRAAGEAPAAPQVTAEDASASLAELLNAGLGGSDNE
Target sequence in this assay (P0A8V2 whole entry, further chain, the tested form may be a part): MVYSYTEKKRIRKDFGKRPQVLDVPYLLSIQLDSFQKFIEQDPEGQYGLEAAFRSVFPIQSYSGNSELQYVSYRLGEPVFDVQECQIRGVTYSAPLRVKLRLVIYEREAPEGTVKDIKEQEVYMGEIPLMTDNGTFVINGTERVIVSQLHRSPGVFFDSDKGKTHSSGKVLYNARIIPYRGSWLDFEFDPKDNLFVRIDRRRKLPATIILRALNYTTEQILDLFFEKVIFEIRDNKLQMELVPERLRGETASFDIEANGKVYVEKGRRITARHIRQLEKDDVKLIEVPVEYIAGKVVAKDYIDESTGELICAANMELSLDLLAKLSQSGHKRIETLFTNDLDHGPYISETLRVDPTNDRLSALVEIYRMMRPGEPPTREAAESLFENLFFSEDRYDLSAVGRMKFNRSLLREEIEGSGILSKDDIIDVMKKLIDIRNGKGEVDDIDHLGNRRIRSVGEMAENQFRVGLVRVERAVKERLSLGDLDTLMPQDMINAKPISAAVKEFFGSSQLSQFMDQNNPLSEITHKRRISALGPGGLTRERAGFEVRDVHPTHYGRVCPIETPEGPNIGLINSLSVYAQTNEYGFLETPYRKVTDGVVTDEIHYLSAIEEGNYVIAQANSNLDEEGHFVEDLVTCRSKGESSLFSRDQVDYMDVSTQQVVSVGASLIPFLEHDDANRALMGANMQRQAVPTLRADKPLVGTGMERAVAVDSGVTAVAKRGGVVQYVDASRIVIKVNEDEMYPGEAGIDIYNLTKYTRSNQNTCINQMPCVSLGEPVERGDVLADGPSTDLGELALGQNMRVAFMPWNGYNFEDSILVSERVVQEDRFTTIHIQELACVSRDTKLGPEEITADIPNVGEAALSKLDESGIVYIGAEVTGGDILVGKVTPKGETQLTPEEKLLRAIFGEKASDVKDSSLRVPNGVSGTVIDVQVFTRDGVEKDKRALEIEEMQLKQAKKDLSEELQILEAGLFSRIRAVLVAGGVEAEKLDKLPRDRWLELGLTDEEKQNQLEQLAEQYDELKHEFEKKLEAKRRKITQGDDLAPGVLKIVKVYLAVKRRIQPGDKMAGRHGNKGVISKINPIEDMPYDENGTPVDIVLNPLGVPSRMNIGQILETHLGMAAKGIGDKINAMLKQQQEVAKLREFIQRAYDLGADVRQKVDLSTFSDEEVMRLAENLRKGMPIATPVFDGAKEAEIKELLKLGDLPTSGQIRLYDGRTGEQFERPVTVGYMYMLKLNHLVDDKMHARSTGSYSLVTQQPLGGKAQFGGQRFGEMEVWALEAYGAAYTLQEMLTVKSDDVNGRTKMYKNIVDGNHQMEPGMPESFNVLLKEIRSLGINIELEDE
Target sequence in this assay (P0A7Z4 whole entry, further chain, the tested form may be a part): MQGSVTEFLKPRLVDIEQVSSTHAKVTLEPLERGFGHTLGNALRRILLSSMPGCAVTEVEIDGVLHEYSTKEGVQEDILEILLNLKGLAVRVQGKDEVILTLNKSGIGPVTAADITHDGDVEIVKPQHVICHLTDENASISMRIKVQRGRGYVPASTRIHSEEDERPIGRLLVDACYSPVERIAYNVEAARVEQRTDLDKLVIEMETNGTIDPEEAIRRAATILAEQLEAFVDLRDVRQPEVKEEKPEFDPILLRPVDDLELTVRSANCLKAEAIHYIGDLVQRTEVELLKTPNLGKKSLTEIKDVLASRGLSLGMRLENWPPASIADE

In experiment [4] the target is labeled σ^70 and β′ (Escherichia coli, UniProt P00579+P0A8T7, C132S/C291S/C295S/S442C). As to conditions: 10 nM labeled σ^70, 50 nM labeled β′.
Procedure: The assay was performed in NTG-buffer (200 μL total volume) plus 2.5% DMSO (when insoluble additives were used) with 10 nM σ^70* (labeled protein) and 50 nM β′* (labeled protein). Labeled σ^70 was added first to the assay, then the potential inhibitor and denatured labeled β′ was added last, mixing the solution well after the addition of each component. The mixture was incubated for 5 minutes at RT and measured in a 96-well plate (Costar 3650) with a multi-plate reader (Wallac, VictorV^2 1420). For this time-resolved fluorescence measurement, the manufacturer's protocol (LANCE high count 615/665) was used (excitation with 1000 flashes, at 325 nm, measurement was delayed by 100 μs and acquired for 50 μs at 615 and 665 nm). […] The IC5-emission is corrected for the very small amount of signal from the Eu-emission band (by cross talk measurement of a standard) and then divided by the intensity of the Eu signal. […] The nature of this method allows the differentiation of the loss of signal due to real inhibition from simple absorption caused by the inner filter effect from the substance.
Experiment [5] concerns the target T2, σ^32 (Escherichia coli, UniProt P0AGB3).
T2 sequence (P0AGB3 whole entry, looked up): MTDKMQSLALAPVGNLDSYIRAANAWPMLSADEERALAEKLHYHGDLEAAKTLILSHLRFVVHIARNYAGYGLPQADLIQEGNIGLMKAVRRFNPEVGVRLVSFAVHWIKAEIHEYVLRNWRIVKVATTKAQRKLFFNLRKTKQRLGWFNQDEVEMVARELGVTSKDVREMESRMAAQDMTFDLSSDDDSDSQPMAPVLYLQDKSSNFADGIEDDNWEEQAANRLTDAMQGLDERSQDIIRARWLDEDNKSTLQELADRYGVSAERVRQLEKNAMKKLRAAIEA
Here is the method: as §1, §2
(§3) All of the sample eluates were also assayed for the presence of any minor σ species.

Experiment [6] deals with σ^F (Escherichia coli, UniProt P0AEM6). The note with it: stationary phase samples. Here is the method: as §1, §2, §3

labeled σ^70 and β′, sequence (P00579 whole entry C132S/C291S/C295S/S442C): as the sequence (P00579 whole entry, the tested form may be a part) above, with C132S, C291S, C295S, S442C counted along it
labeled σ^70 and β′, sequence (P0A8T7 100-309): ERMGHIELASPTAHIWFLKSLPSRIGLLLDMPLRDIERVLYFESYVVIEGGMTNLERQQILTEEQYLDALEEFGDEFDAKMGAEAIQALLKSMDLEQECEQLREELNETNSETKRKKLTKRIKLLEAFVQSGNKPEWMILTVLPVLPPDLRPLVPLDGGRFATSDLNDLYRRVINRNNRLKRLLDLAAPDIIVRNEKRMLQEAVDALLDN

Regarding “N309D (FATSDLNDLYRRVINRNNRLKRLLDLAAPDIIVRNEKRMLQEAVDALLDD)”, in experiment [1], the “ability to bind σ^70 compared to wt β′1-319 fragment” value was “binding more σ^70 than wild type”. Besides, the “growth at the non-permissive temperature” value in experiment [2] is recorded as “no detectable effects on growth”. In addition, in experiment [3], the “Eσ^70 formation / binding σ^70” value is given as “no detectable affect”.
For the molecule “Y269A (FATSDLNDLARRVINRNNRLKRLLDLAAPDIIVRNEKRMLQEAVDALLDN)”, in experiment [1], the “ability to bind σ^70 compared to wt β′1-319 fragment” value is listed as “no effects on binding”. Moreover, in experiment [2], the “growth at the non-permissive temperature” value is “no detectable effects on growth”. In experiment [3], the “Eσ^70 formation / binding σ^70” value was “no detectable affect”.
Consider “R275Q (FATSDLNDLYRRVINQNNRLKRLLDLAAPDIIVRNEKRMLQEAVDALLDN)”, for which the “ability to bind σ^70 compared to wt β′1-319 fragment” value in experiment [1] was “greatly reduced”. The “growth at the non-permissive temperature” value in experiment [2] is listed as “could not support growth”. The “Eσ^70 formation / binding σ^70” value in experiment [3] is given as “defects in binding σ^70”.
Taken in the same sequence, the figures for “E295K (FATSDLNDLYRRVINRNNRLKRLLDLAAPDIIVRNKKRMLQEAVDALLDN)” were “greatly reduced”, “could not support growth” and “defects in binding σ^70”.
Taken in the same sequence, the figures for “K280E (FATSDLNDLYRRVINRNNRLERLLDLAAPDIIVRNEKRMLQEAVDALLDN)” were “no effects on binding”, “no detectable effects on growth” and “no detectable affect”.
Taken in the same sequence, the figures for “N266D (FATSDLDDLYRRVINRNNRLKRLLDLAAPDIIVRNEKRMLQEAVDALLDN)” were “no effects on binding”, “allowed some growth” and “reduced”.
For the molecule `CCO` [ethanol], the “effect on LRET signal / competition” value in experiment [4] was “significant effect”.
As for “R293Q (FATSDLNDLYRRVINRNNRLKRLLDLAAPDIIVQNEKRMLQEAVDALLDN)”, the “ability to bind σ^70 compared to wt β′1-319 fragment” value in experiment [1] is given as “greatly reduced”. Also, the “growth at the non-permissive temperature” value in experiment [2] is reported as “could support growth”. Also, the “Eσ^70 formation / binding σ^70” value in experiment [3] is given as “no detectable affect”.
On to “A302D (FATSDLNDLYRRVINRNNRLKRLLDLAAPDIIVRNEKRMLQEDVDALLDN)”, for which the “ability to bind σ^70 compared to wt β′1-319 fragment” value in experiment [1] is “greatly reduced”. In addition, the “growth at the non-permissive temperature” value in experiment [2] was “could not support growth”. Besides, the “Eσ^70 formation / binding σ^70” value in experiment [3] is on record as “defects in binding σ^70”.
In the case of “Q300E (FATSDLNDLYRRVINRNNRLKRLLDLAAPDIIVRNEKRMLEEAVDALLDN)”, the “increase in relative binding” value in experiment [1] (versus wild type β′1-319) was “greater than 7 fold”. In addition, in experiment [1], the “ability to bind σ^70 compared to wt β′1-319 fragment” value was “binding more σ^70 than wild type”. Also, the “growth at the non-permissive temperature” value in experiment [2] is listed as “no detectable effects on growth”. Besides, the “amount of σ^32” value in experiment [5] (log phase samples) is “decreased amount”. Also, the “σ^32 levels” value in experiment [5] (stationary phase samples) is recorded as “greatly reduced”. Moreover, the “σ^F levels” value in experiment [6] is “greatly reduced”.
As for “R297S (FATSDLNDLYRRVINRNNRLKRLLDLAAPDIIVRNEKSMLQEAVDALLDN)”, in experiment [1], the “ability to bind σ^70 compared to wt β′1-319 fragment” value is given as “greatly reduced”. Besides, the “growth at the non-permissive temperature” value in experiment [2] is reported as “could support growth”. Moreover, the “Eσ^70 formation” value in experiment [3] (log phase samples) is on record as “reduced”. For the same molecule, the “binding of the minor sigmas” value in experiment [5] (minor σ's at detectable levels: σ^32 and σ^F) is listed as “increased binding”.
For the molecule `C[S+](C)[O-]` [DMSO], the “effect on LRET signal / competition” value in experiment [4] is “no significant effect”.
